Test results taken from publication PMC3378601.

Key:
[1] = biological target: NM, the prion domain (N and M domains) of the yeast translation termination factor Sup35, untagged (yeast) (UniProt P05453)
[2] = biological target: NM, the prion domain (N and M domains) of the yeast translation termination factor Sup35, untagged (yeast) (UniProt P05453); remark: listed apart in the source
[3] = biological target: NM, the prion domain (N and M domains) of the yeast translation termination factor Sup35, untagged (yeast) (UniProt P05453); remark: listed apart in the source

pyrene excimer fluorescence of fibers of single cysteine NM mutants after 60 min with Hsp26 (10 µM); reduction at N-terminal positions 2 and 7 (slightly reduced in Head 21-38 and Tail 86-106) [1]: 2 fold
inhibition of NM (5 µM) fibrillization seeded by preformed NM fibers (5% wt/wt), 12 h at 25°C, ThT fluorescence; IC50 of Hsp26 [2]: 1900 nM
inhibition of seeded NM fibrillization by Hsp26 pretreated at 45°C for 10 min, ThT fluorescence; IC50 [3]: > 24000 nM
Substance: Hsp26, yeast small heat shock protein (from UniProt P15992 1-214) (natural protein)
